{"source": "patent US7976843B2", "about": "“Method for screening peptides for use in immunotherapy” (Institut National de la Santa et de la Recherche Medicale …, priority 2000, dated 2011)", "key": {"HLA A2.1 molecule [1]": {"target": "T1, HLA A2.1 molecule (Homo sapiens, UniProt P04439, D140Y/D185E/D98H/E176V/E277Q/G131W/G231S/I119V/I121R/I166T/I218V/L300P/L318F/N151K/N90K/P208A/P217A/Q86G/Q94H/R138H/R169H/T345S)", "type": "binding"}, "HLA A2.1 molecule [2]": {"target": "T1, HLA A2.1 molecule", "assay": "Stability of the peptide/HLA A2.1 complex (DC50) on T2 cells, flow cytometry", "type": "binding", "conditions": "for DC, Native peptides: HIV 1 peptides", "experimental": "For each incubation time, the cells are then labeled, as indicated above, with the BB7.2 antibody, and analyzed by flow cytometry in order to evaluate the amount of peptide/HLA A2.1 complex present at their surface. […] The DC50 (dissociation complex: DC) is defined as being the time required for the loss of 50% of the HLA A2.1/peptide complexes stabilized at t=0."}, "[3]": {"system": "HLA A2.1+/hTERT+ human tumor cells U266", "assay": "Human CTLs tested for killing of U266 tumor cells", "type": "cell-based", "conditions": "E/T 40/1, 20/1, 10/1; FIG. 10", "experimental": "CTLs generated from human PBMCs, originating from healthy donors, stimulated in vitro with autologous dendritic cells loaded with the variant peptide mhp 572Y1 or the variant peptide mhp 988Y1 were tested for their ability to kill HLA A2.1+/hTERT+ human tumor cells: U266 [VONDERHEIDE, Immunity, 10, 11, (1999)], or HSS HLA A2.1−/hTERT+ human tumor cells: [VONDERHEIDE, Immunity, 10, 11, (1999)]."}, "[4]": {"system": "RMAS-HHD targets loaded with peptide", "assay": "Immunogenicity: CTL generation in HHD transgenic mice, 51Cr lysis of peptide-loaded targets", "type": "in vivo", "conditions": "for immunogenicity (in words): HHD mice (also humans); for Responders/total mice: HHD mice, 100 μg peptide s.c., responder: specific cytotoxicity >15% above unloaded targets"}, "[5]": {"system": "RMA-HHH cells infected with recombinant vaccinia virus expressing gag or pol of HIV1", "type": "cell-based, human"}, "[6]": {"system": "RMAS-HHD cells loaded with peptide", "assay": "Vax1/pet-neu immunization: CTL lysis of peptide-loaded RMAS-HHD cells", "type": "in vivo, HHD mice", "conditions": "CTLs of a Vax1/pet-neu immunized mouse; RMAS-HHD targets loaded with the named peptide; FIG. 14", "experimental": "One week after the final immunization, their spleen cells are restimulated in vitro with B cells activated with LPS and loaded with each of the twelve peptides.\nThe cytotoxicity is evaluated using RMAS-HHD cells (target cells) loaded with the peptide corresponding to that with which the B cells were loaded or with a control peptide.\nSix mice are immunized with either the Vax1/pet-neu construct or the vector Vax1. Their spleen cells are stimulated in vitro in a repeated manner with the B cells activated with LPS and loaded with each peptide to be tested (effector cells).\nThe cytotoxicity is tested after the third stimulation in vitro. The RMAS-HHD cells, loaded with the peptide corresponding to that with which the B cells were loaded, or with a control peptide, and the EL-4/HHD/neu cells are used as target cells."}, "EL-4/HHD/neu tumor cells": {"system": "EL-4/HHD/neu tumor cells", "assay": "Antitumor protection after peptide vaccination, EL-4/HHD/neu graft", "conditions": "10 HHD mice, two injections two weeks apart; EL-4/HHD/neu graft"}, "[7]": {"conditions": "native TERT peptides, reference peptide HIVpol 589"}, "[8]": {"conditions": "native peptides, relative affinity vs reference peptide HIVpol 589, lower RA = stronger binding"}}, "note": "Read-outs that look alike come from different tables or passages of the source.", "data": [{"sequence": "DLQVNSLQTV [mhp 988]", "values": [{"measurement": "RA", "setting": "HLA A2.1 molecule [1]; [7]", "result": 28.6}, {"measurement": "DC50", "setting": "HLA A2.1 molecule [2]; native TERT peptides", "result": "<2", "unit": "h"}, {"measurement": "lysis of U266 tumor cells / natural presentation by human tumor cells", "setting": "[3]", "result": "naturally presented by the human tumor cells"}]}, {"sequence": "EMMTACQGV [E9V]", "values": [{"measurement": "RA, P1Y peptides", "setting": "HLA A2.1 molecule [1]", "result": 1.7}, {"measurement": "DC, P1Y peptides", "setting": "HLA A2.1 molecule [2]", "result": ">6", "unit": "h"}, {"measurement": "DC, Native peptides", "setting": "HLA A2.1 molecule [2]", "result": "<2", "unit": "h"}, {"measurement": "immunogenicity (in words)", "setting": "[4]", "result": "not immunogenic"}, {"measurement": "natural presentation by cells expressing HLA-A2.1 and the viral protein", "setting": "[5]", "result": "naturally presented"}]}, {"sequence": "LLDTGADDTV [L10V]", "values": [{"measurement": "RA, P1Y peptides", "setting": "HLA A2.1 molecule [1]", "result": 1.5}, {"measurement": "RA, Native peptides", "setting": "HLA A2.1 molecule [1]; HIV 1 peptides, […]", "result": 10}, {"measurement": "DC, P1Y peptides", "setting": "HLA A2.1 molecule [2]", "result": 4, "unit": "h"}, {"measurement": "DC, Native peptides", "setting": "HLA A2.1 molecule [2]", "result": "<2", "unit": "h"}, {"measurement": "immunogenicity (in words)", "setting": "[4]", "result": "not immunogenic"}, {"measurement": "natural presentation by cells expressing HLA-A2.1 and the viral protein", "setting": "[5]", "result": "naturally presented"}]}, {"sequence": "QLMPYGCLL [HER-2/neu 799, reference compound]", "values": [{"measurement": "RA", "setting": "HLA A2.1 molecule [1]; [8]", "result": 1.0}, {"measurement": "DC50 Y1-DC50 WT", "setting": "HLA A2.1 molecule [2]; […], arrow in neighbouring cell gives direction", "result": ">2", "unit": "h"}, {"measurement": "DC50", "setting": "HLA A2.1 molecule [2]; native peptides, time for loss of 50% of HLA A2.1/peptide complexes", "result": "6 to 8", "unit": "h"}, {"measurement": "Responders/total mice", "setting": "[4]", "result": "3/4"}, {"measurement": "specific lysis above background noise", "setting": "[6]", "result": 30, "unit": "%"}]}, {"sequence": "RLFFYRKSV [mhp 572]", "values": [{"measurement": "RA", "setting": "HLA A2.1 molecule [1]; [7]", "result": 25.3}, {"measurement": "DC50", "setting": "HLA A2.1 molecule [2]; native TERT peptides", "result": "<2", "unit": "h"}, {"measurement": "lysis of U266 tumor cells / natural presentation by human tumor cells", "setting": "[3]", "result": "naturally presented by the human tumor cells"}]}, {"sequence": "RLLQETELV [HER-2/neu 689]", "values": [{"measurement": "Responders/total mice", "setting": "[4]", "result": "5/6"}, {"measurement": "specific lysis above background noise", "setting": "[6]", "result": 30, "unit": "%"}]}, {"sequence": "VMAGVGSPYV [HER-2/neu 773, reference compound]", "values": [{"measurement": "RA", "setting": "HLA A2.1 molecule [1]; [8]", "result": 1.7}, {"measurement": "Responders/total mice", "setting": "[4]", "result": "2/3"}, {"measurement": "specific lysis above background noise", "setting": "[6]", "result": 30, "unit": "%"}]}, {"sequence": "YLEEITGYL [HER-2/neu 402Y1]", "values": [{"measurement": "RA", "setting": "HLA A2.1 molecule [1]", "result": 3.7}, {"measurement": "DC50", "setting": "HLA A2.1 molecule [2]", "result": 4, "unit": "h"}, {"measurement": "specific lysis above background noise", "setting": "[6]", "result": 30, "unit": "%"}, {"measurement": "tumor size at D28", "setting": "EL-4/HHD/neu tumor cells", "result": "323±116", "unit": "mm^2"}]}, {"sequence": "YLQPEQLQV [HER-2/neu 391Y1]", "values": [{"measurement": "RA", "setting": "HLA A2.1 molecule [1]", "result": 1.3}, {"measurement": "DC50", "setting": "HLA A2.1 molecule [2]", "result": 6, "unit": "h"}, {"measurement": "specific lysis above background noise", "setting": "[6]", "result": 30, "unit": "%"}]}]}
